Experiment [1] concerns the target HLA-B*44:05 (human). The experiment in a line: UV peptide exchange, anti-b2m ELISA; exchange yield grade. (An ELISA detects its analyte on a solid surface through an enzyme-linked reagent.)
Experiment [2] concerns the target T1, HLA-A*01:01 (human).
T1 construct: Peptide-receptive MHC class I monomer: a UV-sensitive peptide (not specified) is cleaved and exchanged with the test peptide
The experiment is described as above.

For experiment [3], the target named is T2, HLA-A*24:02 (human).
T2 construct: Peptide-receptive MHC class I monomer in the UV-ligand exchange assay
The description is as above.

The target of experiment [4] is T2, HLA-A*24:02. The experiment in a line: allele assigned to HLA ligand eluted from tissue (IP, LC-MS).

B1: TEMSVSALY (peptide)
peptide: TEMSVSALY
On to B1, for which the binding result in experiment [1] is “binds”.

B2: ETNTIEFIY (peptide)
peptide: ETNTIEFIY
As for B2, the peptide exchange yield in experiment [2] was ≥ 75%.

B3: TEIGTVIKLF (peptide)
peptide: TEIGTVIKLF
B3: the binding result in experiment [1] is on record as “binds”.

B4: AEGPDHHSL (peptide)
peptide: AEGPDHHSL
For the molecule B4, the binding result in experiment [1] is given as “binds”.

B5: YSSEIWDLY (peptide)
peptide: YSSEIWDLY
On to B5, for which, in experiment [2], the peptide exchange yield was ≥ 75%.

B6: LYIFTTRPF (peptide)
peptide: LYIFTTRPF
Consider B6, for which, in experiment [3], the binding result was “binds”.

B7: VFIPSVINL (peptide)
peptide: VFIPSVINL
Turning to B7, the binding result in experiment [3] is “binds”.

B8: SFSLLLPYL (peptide)
peptide: SFSLLLPYL
For B8, in experiment [3], the binding result is “binds”.

B9: AYIPFPPLI (peptide)
peptide: AYIPFPPLI
For the molecule B9, the binding result in experiment [3] is “binds”.

B10: NVSFEVSLLY (peptide)
peptide: NVSFEVSLLY
For the molecule B10, in experiment [2], the peptide exchange yield is ≥ 75%.

B11: FTQKINSTW (peptide)
peptide: FTQKINSTW
In experiment [2], B11 registered a peptide exchange yield of 20 to 50%.

B12: VWILQKVNLAF (peptide)
peptide: VWILQKVNLAF
For B12, in experiment [4], the binding result is listed as “binds”.

B13: EEGRIITKW (peptide)
peptide: EEGRIITKW
As for B13, in experiment [1], the binding result is reported as “binds”.

B14: FSEIFQDFL (peptide)
peptide: FSEIFQDFL
The molecule B14 came in with a peptide exchange yield in experiment [2] of 50 to 75%.

B15: SADTAELLL (peptide)
peptide: SADTAELLL
In turn, B15 came in with a peptide exchange yield in experiment [2] of 20 to 50%.

B16: LIDSLLLLL (peptide)
peptide: LIDSLLLLL
B16 had a peptide exchange yield in experiment [2] of 50 to 75%.

B17: DVDIHKDLY (peptide)
peptide: DVDIHKDLY
For the molecule B17, in experiment [2], the peptide exchange yield was ≥ 75%.

B18: VEGVHFVQLL (peptide)
peptide: VEGVHFVQLL
B18: in experiment [1], the binding result is reported as “binds”.

B19: VFLLLPYPRF (peptide)
peptide: VFLLLPYPRF
Consider B19, for which the binding result in experiment [4] is on record as “binds”.

B20: ASSPVILLL (peptide)
peptide: ASSPVILLL
As for B20, in experiment [2], the peptide exchange yield lay within 20 to 50%.

B21: IYIPTNSIYKF (peptide)
peptide: IYIPTNSIYKF
Regarding B21, in experiment [3], the binding result is “binds”.

B22: LNFSDVFLY (peptide)
peptide: LNFSDVFLY
With B22, in experiment [2], the peptide exchange yield is 20 to 50%.

B23: LYQTTIELF (peptide)
peptide: LYQTTIELF
Regarding B23, the binding result in experiment [3] was “binds”.

B24: KYPTIICGF (peptide)
peptide: KYPTIICGF
Turning to B24, in experiment [3], the binding result is “binds”.

B25: VEAPHLPSF (peptide)
peptide: VEAPHLPSF
Turning to B25, the binding result in experiment [1] is “binds”.

B26: METADRPEW (peptide)
peptide: METADRPEW
For the molecule B26, in experiment [1], the binding result was “binds”.

B27: KEIEAQEAA (peptide)
peptide: KEIEAQEAA
B27: the binding result in experiment [1] is “binds”.

B28: AWNESSAWLL (peptide)
peptide: AWNESSAWLL
As for B28, the binding result in experiment [4] is recorded as “binds”.

B29: IYFHLNNWTI (peptide)
peptide: IYFHLNNWTI
As for B29, the binding result in experiment [3] was “binds”.

B30: REQLDGATL (peptide)
peptide: REQLDGATL
With B30, the binding result in experiment [1] was “binds”.

B31: AETKQFWSA (peptide)
peptide: AETKQFWSA
On to B31, for which, in experiment [1], the binding result was “binds”.

B32: GRFWLPFNF (peptide)
peptide: GRFWLPFNF
With B32, the binding result in experiment [3] was “binds”.

B33: RADEEQASF (peptide)
peptide: RADEEQASF
For B33, in experiment [2], the peptide exchange yield was 20 to 50%.

B34: WETRLHNLW (peptide)
peptide: WETRLHNLW
With B34, the binding result in experiment [1] is “binds”.

B35: KEFAFLEHSL (peptide)
peptide: KEFAFLEHSL
Turning to B35, in experiment [1], the binding result is given as “binds”.

B36: EAAPNIMHY (peptide)
peptide: EAAPNIMHY
B36: the peptide exchange yield in experiment [2] was 20 to 50%.

B37: NSENLLVY (peptide)
peptide: NSENLLVY
Molecule B37 registered a peptide exchange yield in experiment [2] of 50 to 75%.

B38: RELGVGIAL (peptide)
peptide: RELGVGIAL
Turning to B38, the binding result in experiment [1] is “binds”.

B39: FDLNIGSAY (peptide)
peptide: FDLNIGSAY
With B39, in experiment [1], the binding result is reported as “binds”.

B40: VQSGVPSRF (peptide)
peptide: VQSGVPSRF
On to B40, for which the binding result in experiment [3] was “binds”.

B41: TVDKGELLY (peptide)
peptide: TVDKGELLY
As to B41, the peptide exchange yield in experiment [2] was ≥ 75%.

B42: SHSLPAFTL (peptide)
peptide: SHSLPAFTL
With B42, the binding result in experiment [3] is listed as “binds”.

B43: VYIASSFKI (peptide)
peptide: VYIASSFKI
For B43, in experiment [4], the binding result is given as “binds”.

B44: VSPDEVLALW (peptide)
peptide: VSPDEVLALW
The molecule B44 came in with a peptide exchange yield in experiment [2] of 20 to 50%.

B45: VLYPSHSSF (peptide)
peptide: VLYPSHSSF
Regarding B45, the binding result in experiment [4] was “binds”.

B46: SQAKQITIW (peptide)
peptide: SQAKQITIW
Regarding B46, in experiment [1], the binding result is reported as “binds”.

B47: REVAGASAL (peptide)
peptide: REVAGASAL
With B47, the binding result in experiment [1] was “binds”.

B48: NSDLFYLLL (peptide)
peptide: NSDLFYLLL
For B48, the peptide exchange yield in experiment [2] is ≥ 75%.

B49: GEAAAARPV (peptide)
peptide: GEAAAARPV
Regarding B49, the binding result in experiment [1] was “binds”.

These data come from patent US20240358755A1 (IMMATICS BIOTECHNOLOGIES, published 2024).
